These results are taken from US20130129731A1 (SAMSUNG ELECTRONICS, published 2013).

The term Kd denotes the constant that tells how readily two partners part at equilibrium. A high value points to weaker binding. Broadly, the koff is the rate constant with which the complex falls apart. High values mean fast dissociation, low ones slow dissociation. Broadly, the kon is a measure of how fast the partners come together. A higher kon goes with faster complex formation.

The target in experiment [1] is T1, human c-Met antigen (Biacore analyte) (human, UniProt P08581 25-932, limits assumed). Nature of the experiment: SPR (Biacore), antibody immobilised on a CM5 chip, c-Met antigen injected. The method, then:
(§1) Binding affinity of the IGTML4-4 antibody constructed in Example 1 to c-Met antigens was analyzed using a Biacore (available from GE Healthcare).

For experiment [2], the target named is T2, mouse c-Met antigen (Biacore analyte) (mouse, UniProt P16056 25-931, limits assumed). Described as above. The method, then: as §1
T2 sequence (P16056 25-931 limits assumed): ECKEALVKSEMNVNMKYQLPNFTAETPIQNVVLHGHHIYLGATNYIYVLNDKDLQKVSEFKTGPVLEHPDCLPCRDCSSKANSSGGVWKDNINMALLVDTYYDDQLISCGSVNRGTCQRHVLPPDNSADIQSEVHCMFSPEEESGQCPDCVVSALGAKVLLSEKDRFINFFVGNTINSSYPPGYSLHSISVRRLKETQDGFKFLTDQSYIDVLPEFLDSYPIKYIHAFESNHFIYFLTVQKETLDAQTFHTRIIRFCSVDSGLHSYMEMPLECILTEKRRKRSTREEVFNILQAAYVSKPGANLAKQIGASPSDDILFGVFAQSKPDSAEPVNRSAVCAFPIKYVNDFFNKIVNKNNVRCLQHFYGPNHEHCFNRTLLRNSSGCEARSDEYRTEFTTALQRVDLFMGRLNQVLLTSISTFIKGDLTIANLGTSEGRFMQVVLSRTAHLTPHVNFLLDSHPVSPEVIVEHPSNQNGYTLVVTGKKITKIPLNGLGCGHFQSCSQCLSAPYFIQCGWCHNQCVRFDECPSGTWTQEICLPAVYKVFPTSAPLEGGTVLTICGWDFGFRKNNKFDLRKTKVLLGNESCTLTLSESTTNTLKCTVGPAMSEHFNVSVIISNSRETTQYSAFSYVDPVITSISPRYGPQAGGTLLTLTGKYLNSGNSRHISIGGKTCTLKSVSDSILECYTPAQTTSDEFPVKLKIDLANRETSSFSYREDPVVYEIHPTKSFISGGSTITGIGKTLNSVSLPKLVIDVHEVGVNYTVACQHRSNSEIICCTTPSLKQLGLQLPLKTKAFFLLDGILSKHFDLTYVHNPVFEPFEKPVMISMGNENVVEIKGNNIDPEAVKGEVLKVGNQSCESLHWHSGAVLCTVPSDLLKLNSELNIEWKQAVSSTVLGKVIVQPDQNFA
Experiment [3] has as its target T1, human c-Met antigen (Biacore analyte). The description is as above. Here is the method: as §1
The source holds these as a separate data set.

The target of experiment [4] is T2, mouse c-Met antigen (Biacore analyte). The experiment is described as above. The method, then:
as §1
This is another data set of the same source.

For the next experiment, the target named is T3, BSA (Takara) (Bos taurus, UniProt P02769).
T3 construct: commercial protein
T3 sequence (P02769 25-607 limits assumed): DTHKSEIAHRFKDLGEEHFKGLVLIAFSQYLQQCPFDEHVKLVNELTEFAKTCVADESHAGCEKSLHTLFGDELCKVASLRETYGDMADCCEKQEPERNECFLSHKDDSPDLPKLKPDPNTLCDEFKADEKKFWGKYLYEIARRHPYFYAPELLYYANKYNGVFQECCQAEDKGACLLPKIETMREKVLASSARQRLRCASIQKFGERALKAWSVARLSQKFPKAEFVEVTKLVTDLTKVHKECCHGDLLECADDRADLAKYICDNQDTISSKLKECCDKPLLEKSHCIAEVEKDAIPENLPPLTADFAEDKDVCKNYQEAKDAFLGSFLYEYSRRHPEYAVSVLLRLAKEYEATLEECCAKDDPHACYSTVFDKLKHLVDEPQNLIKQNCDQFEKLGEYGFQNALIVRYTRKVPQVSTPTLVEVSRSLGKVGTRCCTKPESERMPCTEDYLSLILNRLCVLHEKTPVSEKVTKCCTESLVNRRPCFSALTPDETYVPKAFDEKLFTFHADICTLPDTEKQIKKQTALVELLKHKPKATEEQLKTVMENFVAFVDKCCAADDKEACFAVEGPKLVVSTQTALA
Nature of the experiment: ELISA, antigen coated on the plate, detection with goat anti-human IgG-HRP, absorbance at 450 nm. For orientation: An ELISA detects its analyte on a solid surface through an enzyme-linked reagent.

Experiment [5] deals with c-Met on human cells (Caki-1 cells, HUVECs, human primary hepatocytes) (human, UniProt P08581 25-1390). As to the kind of experiment: cell-based or functional assay.
Sequence of c-Met on human cells (Caki-1 cells, HUVECs, human primary hepatocytes) (P08581 25-1390): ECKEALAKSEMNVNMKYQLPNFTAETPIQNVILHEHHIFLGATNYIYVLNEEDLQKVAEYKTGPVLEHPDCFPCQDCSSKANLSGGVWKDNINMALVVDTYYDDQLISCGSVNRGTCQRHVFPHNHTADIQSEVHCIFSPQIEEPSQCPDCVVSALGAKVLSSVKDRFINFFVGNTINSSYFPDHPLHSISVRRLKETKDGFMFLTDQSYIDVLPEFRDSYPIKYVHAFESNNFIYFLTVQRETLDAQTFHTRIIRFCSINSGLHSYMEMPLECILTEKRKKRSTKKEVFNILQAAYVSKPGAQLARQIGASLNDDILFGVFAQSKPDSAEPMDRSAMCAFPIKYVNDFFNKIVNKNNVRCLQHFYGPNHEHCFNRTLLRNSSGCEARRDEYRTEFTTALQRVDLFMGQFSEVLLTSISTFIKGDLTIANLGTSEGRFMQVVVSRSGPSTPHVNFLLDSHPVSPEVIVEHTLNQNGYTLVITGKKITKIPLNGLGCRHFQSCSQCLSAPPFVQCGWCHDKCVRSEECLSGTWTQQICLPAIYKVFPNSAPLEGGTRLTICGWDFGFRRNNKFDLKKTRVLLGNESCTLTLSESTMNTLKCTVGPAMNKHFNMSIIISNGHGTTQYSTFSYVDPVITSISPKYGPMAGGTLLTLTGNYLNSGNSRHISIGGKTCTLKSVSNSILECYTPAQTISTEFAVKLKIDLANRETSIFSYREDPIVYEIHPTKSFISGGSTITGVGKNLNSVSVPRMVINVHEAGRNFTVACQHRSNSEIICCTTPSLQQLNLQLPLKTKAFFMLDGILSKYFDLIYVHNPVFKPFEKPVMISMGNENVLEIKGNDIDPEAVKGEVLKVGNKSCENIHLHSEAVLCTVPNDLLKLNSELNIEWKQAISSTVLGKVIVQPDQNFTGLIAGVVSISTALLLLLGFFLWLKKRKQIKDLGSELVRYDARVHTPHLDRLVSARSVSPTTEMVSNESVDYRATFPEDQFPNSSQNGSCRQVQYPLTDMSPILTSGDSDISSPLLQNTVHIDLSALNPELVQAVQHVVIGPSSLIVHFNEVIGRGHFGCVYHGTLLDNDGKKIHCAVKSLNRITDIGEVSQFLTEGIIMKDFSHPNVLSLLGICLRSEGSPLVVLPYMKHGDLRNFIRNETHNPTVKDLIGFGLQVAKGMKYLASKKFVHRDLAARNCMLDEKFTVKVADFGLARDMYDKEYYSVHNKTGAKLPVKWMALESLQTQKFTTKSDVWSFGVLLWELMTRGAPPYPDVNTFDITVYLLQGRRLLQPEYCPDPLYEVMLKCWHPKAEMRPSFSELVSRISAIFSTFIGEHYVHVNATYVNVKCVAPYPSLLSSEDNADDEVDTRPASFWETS

Where two headings read alike, the source gives them in different places.

T1 sequence (P08581 25-932 limits assumed): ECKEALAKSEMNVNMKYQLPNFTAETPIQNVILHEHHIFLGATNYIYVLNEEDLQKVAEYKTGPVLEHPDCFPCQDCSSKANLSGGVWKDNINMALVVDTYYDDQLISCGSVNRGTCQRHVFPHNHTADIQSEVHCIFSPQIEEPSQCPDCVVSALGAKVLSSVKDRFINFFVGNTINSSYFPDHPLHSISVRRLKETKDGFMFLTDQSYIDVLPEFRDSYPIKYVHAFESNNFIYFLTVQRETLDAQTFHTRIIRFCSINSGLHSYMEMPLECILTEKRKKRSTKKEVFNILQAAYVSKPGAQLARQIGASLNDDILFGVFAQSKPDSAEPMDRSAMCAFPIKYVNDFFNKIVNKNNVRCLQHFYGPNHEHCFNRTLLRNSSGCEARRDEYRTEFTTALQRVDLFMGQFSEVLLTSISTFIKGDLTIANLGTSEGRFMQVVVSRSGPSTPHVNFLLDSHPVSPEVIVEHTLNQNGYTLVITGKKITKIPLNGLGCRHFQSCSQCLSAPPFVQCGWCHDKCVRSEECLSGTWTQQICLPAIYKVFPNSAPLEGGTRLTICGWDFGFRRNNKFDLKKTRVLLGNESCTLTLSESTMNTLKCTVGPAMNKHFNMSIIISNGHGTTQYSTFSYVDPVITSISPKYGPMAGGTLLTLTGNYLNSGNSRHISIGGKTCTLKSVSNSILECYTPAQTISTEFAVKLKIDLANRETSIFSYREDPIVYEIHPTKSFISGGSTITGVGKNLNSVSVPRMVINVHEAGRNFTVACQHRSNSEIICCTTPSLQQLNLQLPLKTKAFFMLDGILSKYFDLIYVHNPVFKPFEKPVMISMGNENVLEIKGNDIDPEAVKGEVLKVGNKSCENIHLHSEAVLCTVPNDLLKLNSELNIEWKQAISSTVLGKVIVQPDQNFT

B1: IGTML4-4 antibody (antibody, V domains shown)
VH: QVQLLQSGGGLVQPGGSLRVSCAASGFRFSMYVMTWVRQAPGKGLEWVSEISASGASTYYADSVKGRFTMSRDNSKNTVFLQMNSLRVEDTAVYYCARAYRYGMDVWGQGTMVTVSS
VL: DIVMTQSPSSVSASVGDRVTLTCRASQNIGSWLAWYQQKPGNAPKLLIYRASNLRSGVPSRFSGSGSGTDFTLTISSLQPEDFATYFCQQATIFPLTFGGGTRVDIKR
notes: also called anti c-Met antibody
In the case of B1, the Kd was < 1 nM in experiment [1], < 1 nM in experiment [2], 0.398 nM in experiment [3] and 0.304 nM in experiment [4]. Further, the results for the dissociation rate constant (koff) in experiment [3] and in experiment [4] were 0.000188 s⁻¹ and 0.000168 s⁻¹, respectively. Besides, the kon was found to be 471000 M⁻¹ s⁻¹ in experiment [3] and 553000 M⁻¹ s⁻¹ in experiment [4]. Further, the binding result with BSA (Takara) is reported as “no binding”. Also, the “degree of Akt phosphorylation relative to the 5D5 antibody (Caki-1 cells, 5 µg/ml antibody, phospho-AKT1 Ser473 sandwich ELISA)” value in experiment [5] was ~84%.
